Usually stoichiometry N stands for the number of molecules, sites or subunits per partner or assembly.

The series deals with the molecule itself. Description: SEC; purified recombinant His-tagged ASK13; Superose 6 column by the legend; fractions confirmed by dot blot with an anti-His antibody.

B1: Recombinant His-tagged ASK13 (natural protein, Arabidopsis thaliana, UniProt Q9M1X5 1-154, looked up)
chain: MSKMVMLLSSDGESFQVEEAVAVQSQTIAHMIEDDCVANGVPIANVTGVILSKVIEYCKKHVVSDSPTEESKDELKKWDAEFMKALEQSSTLFDVMLAANYLNIKDLLDLGCQTVADMITGKKPDEIRALLGIENDFTPEEEEEIRKENQWAFE
notes: ASK13 (SKP1-like protein13), Arabidopsis thaliana, At3g60010; sub-cloned into pET23d; Found as monomer and dimer; also called recombinant ASK13; his-tagged ASK13 protein; not shown: His tag, C-terminal, kept
In the case of B1, the “stoichiometry N” value worked out at 2.

Values taken from PMC6054272, “Arabidopsis SKP1-like protein13 (ASK13) positively regulates seed germination and seedling growth under abiotic stress” (Journal of Experimental Botany, 2018).
